For one substance, fluorescence positive cells results are on record in patent publication US20120184485A1.

Test [1] addresses scavenger receptor CD36. The test is described as follows: flow cytometry on CD36-transfected CHO cells, rAv17 at 5 µg/ml; baseline 20%. (In general: In flow cytometry, cells or beads pass a laser one at a time.)
Test [2] addresses scavenger receptor CD36. Description: flow cytometry on CD36-transfected CHO cells, rAv17 at 2.5 µg/ml; baseline 20%.

On to “recombinant Acanthocheilonema viteae cystatin (rAv17)”, for which the results for the fluorescence positive cells in the test with scavenger receptor CD36 [1] and with scavenger receptor CD36 [2] were 89% and 71%, respectively.
